Key:
[1] = target: T1, IL-23 (R&D Systems, 1290-IL-010) (UniProt Q9NPF7 20-189; P29460 23-328); experiment: cell-based or functional assay
T1 sequence (looked up) 1: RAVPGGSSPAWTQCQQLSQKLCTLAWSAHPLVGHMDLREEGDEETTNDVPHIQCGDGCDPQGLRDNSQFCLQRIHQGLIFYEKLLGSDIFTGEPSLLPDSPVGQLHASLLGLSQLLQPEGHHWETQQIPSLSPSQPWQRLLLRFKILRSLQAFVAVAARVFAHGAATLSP
T1 sequence (looked up) 2: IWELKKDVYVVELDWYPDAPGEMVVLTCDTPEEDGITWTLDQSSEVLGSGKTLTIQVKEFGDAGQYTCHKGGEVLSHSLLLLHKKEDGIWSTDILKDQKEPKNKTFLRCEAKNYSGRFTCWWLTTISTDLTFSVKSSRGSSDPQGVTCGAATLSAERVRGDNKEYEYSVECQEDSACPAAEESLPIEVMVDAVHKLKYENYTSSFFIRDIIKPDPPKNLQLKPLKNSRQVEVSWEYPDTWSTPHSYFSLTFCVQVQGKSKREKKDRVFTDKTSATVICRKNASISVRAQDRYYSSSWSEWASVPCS

[2] = target: T2, IL-12/23 p40 (Sino biological, 10052-H08H) (UniProt P29460 23-328); experiment: ELISA, IL-12/23 p40 coated, sample titrated
T2 construct: Bought protein
T2 sequence (looked up): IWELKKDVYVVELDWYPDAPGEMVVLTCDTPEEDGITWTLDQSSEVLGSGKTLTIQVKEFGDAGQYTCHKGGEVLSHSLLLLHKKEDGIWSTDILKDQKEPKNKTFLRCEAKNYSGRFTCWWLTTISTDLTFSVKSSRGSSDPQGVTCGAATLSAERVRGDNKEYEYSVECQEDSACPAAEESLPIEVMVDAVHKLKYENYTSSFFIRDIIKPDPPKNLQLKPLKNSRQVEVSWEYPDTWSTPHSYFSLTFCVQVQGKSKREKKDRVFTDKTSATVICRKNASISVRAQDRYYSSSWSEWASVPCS
Method: The binding activity of the antibodies or fusion proteins for BAFF, APRIL, and IL-12/23 p40 was assayed by the ELISA method (coating an antigen protein). The specific procedures were as follows:
A BAFF (Sino biological, 10056-HNCH), APRIL (R&D Systems, 5860-AP-010/CF), or IL-12/23 p40 (Sino biological, 10052-H08H) protein was diluted to 1 μg/mL with a PBS (BasalMedia, B320) buffer at pH 7.4, and added to a 96-well microplate (Corning, 3590) at 100 μL/well. The plate was incubated at 4° C. overnight. After the liquid was discarded, 300 μL of 5% skim milk (BD, 232100) diluted with PBS was added to each well for blocking, and the plate was incubated at 37° C. for 2 h. After the blocking was completed, the blocking solution was discarded, and the plate was washed 3 times with a PBST buffer (PBS at pH 7.4 containing 0.1% tween-20). 100 μL of test antibody or fusion protein solution diluted in a gradient was added to each well, and the plate was incubated at 37° C. for 1 h. After the incubation was completed, the plate was washed 3 times with PBST. […] The plate was washed 3 times with PBST. […] The plate was read for absorbance values at 450 nm on a microplate reader, the binding curves of the antibodies to an antigen were fitted with software, and the EC₅₀ values were calculated.

[3] = target: T3, human BAFF (10056-HNCH, Sino biological) (human, UniProt Q9Y275 134-285); experiment: ELISA, BAFF coated
T3 construct: Bought protein

[4] = target: T2, IL-12/23 p40 (Sino biological, …); experiment: competition ELISA: biotin-labeled p40 to coated IL-12Rβ1
Method: A receptor protein was diluted to 2 μg/mL with PBS at pH 7.4 (BasalMedia, B320) and added to a 96-well microplate (Corning, 3590) at 100 μL/well. The plate was incubated at 4° C. overnight. After the liquid was discarded, 200 μL of 1% Casein blocking solution (Thermo, 37528) was added to each well for blocking, and the plate was incubated at 37° C. for 2 h. After the blocking was completed, the blocking solution was discarded, and the plate was washed 3 times with a PBST buffer (PBS at pH 7.4 containing 0.1% tween-20) for later use. A biotin-labeled ligand protein at a fixed concentration was mixed with the antibody or fusion protein diluted in gradient, pre-incubated at 37° C. for 30 min, and added to a blocked microplate. The plate was incubated at 37° C. for 1.5 h. After the incubation was completed, the plate was washed 3 times with PBST. 100 μL of streptavidin-HRP (Invitrogen, 434323, diluted at a ratio of 1:4000) was added to each well, and the plate was incubated at 37° C. for 1 h. The supernatant was removed, and the plate was washed 3 times with PBST. […] The plate was read for absorbance values at 450 nm on a microplate reader, the curves for the inhibition of the binding of the ligands to the receptors were fitted with software, and the IC₅₀ values were calculated. […]

[5] = target: T4, human APRIL (5860-AP-010/CF, R&D Systems) (human, UniProt O75888 115-250, limits assumed); experiment: ELISA, APRIL coated
T4 construct: Bought protein
T4 sequence (looked up): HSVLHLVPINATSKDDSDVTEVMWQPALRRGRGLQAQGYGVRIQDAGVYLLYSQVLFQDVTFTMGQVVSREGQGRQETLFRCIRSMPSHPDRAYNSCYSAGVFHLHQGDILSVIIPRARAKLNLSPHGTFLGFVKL

[6] = target: T5, human IL-12 (CT050-H08H, Sino biological) (human, UniProt P29459 23-219; P29460 23-328); experiment: SPR (Biacore), sample captured on Protein A, antigen flowed, 1:1 fit
T5 construct: Bought heterodimer
T5 sequence (looked up) 1: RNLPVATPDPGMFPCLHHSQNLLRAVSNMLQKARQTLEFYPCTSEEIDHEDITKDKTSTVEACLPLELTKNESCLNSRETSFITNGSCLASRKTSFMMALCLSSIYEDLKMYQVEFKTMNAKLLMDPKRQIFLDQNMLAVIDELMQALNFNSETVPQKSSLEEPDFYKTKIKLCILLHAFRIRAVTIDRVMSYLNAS
T5 sequence (looked up) 2: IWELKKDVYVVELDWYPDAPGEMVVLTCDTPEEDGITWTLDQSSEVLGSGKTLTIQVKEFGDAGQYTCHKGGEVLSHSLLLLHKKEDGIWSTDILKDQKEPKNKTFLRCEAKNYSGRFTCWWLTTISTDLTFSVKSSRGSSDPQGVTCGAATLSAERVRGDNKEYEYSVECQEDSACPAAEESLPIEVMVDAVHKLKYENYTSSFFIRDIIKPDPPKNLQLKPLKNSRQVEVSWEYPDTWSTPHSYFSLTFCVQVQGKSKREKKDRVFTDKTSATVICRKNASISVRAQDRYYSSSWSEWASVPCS

[7] = target: T6, cynomolgus monkey p40 (10215-CL, R&D Systems) (cynomolgus monkey); experiment: as above
T6 construct: Bought protein

[8] = target: T7, human IL-23 (CT048-H08H, Sino biological) (human, UniProt Q9NPF7 20-189; P29460 23-328); experiment: as above
T7 construct: Bought heterodimer
T7 sequence (looked up) 1: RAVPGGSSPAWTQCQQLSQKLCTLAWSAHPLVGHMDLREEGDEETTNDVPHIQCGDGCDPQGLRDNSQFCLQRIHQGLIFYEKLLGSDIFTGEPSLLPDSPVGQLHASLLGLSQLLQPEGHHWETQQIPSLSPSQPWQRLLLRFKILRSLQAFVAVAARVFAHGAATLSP
T7 sequence (looked up) 2: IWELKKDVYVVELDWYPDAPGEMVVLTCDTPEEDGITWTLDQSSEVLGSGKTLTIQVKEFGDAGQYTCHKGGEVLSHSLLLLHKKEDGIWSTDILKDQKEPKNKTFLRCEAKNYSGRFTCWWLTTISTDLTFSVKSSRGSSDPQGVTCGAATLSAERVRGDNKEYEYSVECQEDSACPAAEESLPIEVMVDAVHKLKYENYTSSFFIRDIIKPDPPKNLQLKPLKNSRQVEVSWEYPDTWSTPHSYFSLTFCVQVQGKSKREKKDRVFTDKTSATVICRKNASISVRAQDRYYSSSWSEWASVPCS

IC50 (nM) for the inhibition of IL-23-induced IL-17 secretion [1]: 2.49 nM | EC50 [2]: 0.786 nM | binding result [3]: no binding | IC50 [4]: 2.08 nM | binding result [5]: no binding | Kd [6]: 0.0387 nM | koff [6]: 0.00018 s⁻¹ | kon [6]: 4.66e+06 M⁻¹ s⁻¹ | Kd [7]: 0.254 nM | koff [7]: 0.000236 s⁻¹ | kon [7]: 931000 M⁻¹ s⁻¹ | Kd [8]: 0.0844 nM | koff [8]: 0.000107 s⁻¹ | kon [8]: 1.26e+06 M⁻¹ s⁻¹
B1: Ustekinumab (antibody, human IgG1, kappa, V domains shown)
VH: EVQLVQSGAEVKKPGESLKISCKGSGYSFTTYWLGWVRQMPGKGLDWIGIMSPVDSDIRYSPSFQGQVTMSVDKSITTAYLQWNSLKASDTAMYYCARRRPGQGYFDFWGQGTLVTVSS
VL: DIQMTQSPSSLSASVGDRVTITCRASQGISSWLAWYQQKPEKAPKSLIYAASSLQSGVPSRFSGSGSGTDFTLTISSLQPEDFATYYCQQYNIYPYTFGQGTKLEIKR
notes: Control antibody; also called anti-IL-12/IL-23 p40 subunit antibody ustekinumab
